# Laboratory results published in the RNAGym collection of RNA variant scans (doi:10.1073/pnas.2313332121).
# B1: TPR t1 (parent)
# chain: GACCAAUCUGCCCUCAGAGCUCGAGAACAUCUUCGGAUGCAGAGGAGGCAGGCUUCGGUGGCGCGAUAGCGCCAACGUCCUCAACCUCCAAUGCAUCCCACCACAUGAUGAUGCCUGAAGAGCCUUGGUUUUUUG
# Variants of: B1
# Assay: polymerase ribozyme fitness, log enrichment relative to wild type (log ratio); higher = more active; in vitro selection for triplet polymerase activity
# Summary of the method: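 Fitness measures genotype enrichment against wild-type enrichment on a logarithmic scale, with inverse-variance-weighted averaging of replicates. The logarithm is base 2, and genotypes were kept only with ≥10 input reads and ≥1 read per output in Illumina sequencing. The sequenced libraries came from one triplicate in vitro selection round, including frozen incubation at −7 °C, of PCR-built, transcribed mutant libraries of each subunit of a heterodimeric triplet polymerase ribozyme.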
row,Variant,polymerase ribozyme fitness (log ratio)
1,GACCAAUCUGCCCUCAGAGCUCGAGAACAUCUUCGGUUGCAGAGGAGGCAGGCUUCGGUGGCGCGAUAGCGCCAACGUCCUCAACCUCCAAUGCAUCCCACCACACGAUGAUGCCUGAGGAGCCUUGGUUUUUUG [A37U U106C A119G],0.31
2,GACCAAUCUGCCCUCAGAGCUCGAGAACAUCUUCGGACGCAGAGGAGGCAGGCUUUGGUGGCGCGAUAGCGCCAACGUCCUCAGCCUCCAAUGCAUCCCACCACAUGAUGAUGCCUGAAGAGCCUUGGUUUUUUG [U38C C56U A84G],-1.53
3,GACCAAUCUGCCCUCAGAGCUCGAGAACAUCUUCGGACGCAUAGGAGGCAGGCUUCGGUGGGGCGAUAGCGCCAACGUCCUCAACCUCCAAUGCAUCCCACCACAUGAUGAUGCCUGAAGAGCCUUGGUUUUUUG [U38C G42U C62G],-5.61
4,GACCAAUCUGCCCUCAGAGCUCGAGAACAUCUUCGGAAGCAAAGGAGGCAGGCUUCGGUGGCGCGAUAGCGCCAACGUCCUCAACCUCCAAUGCAUCCCACCACAUGAUGAUGCCUGAAGAGCCUUGGUUUUUUG [U38A G42A],-2.86
5,GACCAAUCUGCCCUCAGAGCUCGAGAACAUCUUCGGAAGCAGAGGAGGCAGGCUUCGGUGGCGCGAUAGCGCCAACGUCCUCAACGUCCAAUGCAUCCCACCACAUGAUGAUGCCUGUAGAGCCUUGGUUUUUUG [U38A C86G A118U],-1.76
6,GACCAAUCUGCCCUCAGAGCUCGAGAACAUCUUCGGAAGCAGAGGAGGCAGGCUUCGCUGGCGCGAUAGCGCCAACGUCCUCAACCUCCAAUGCAUCCCACCACAUGAUGAUGCAUGAAGAGCCUUGGUUUUUUG [U38A G58C C115A],-1.1
7,GACCAAUCUGCCCUCAGAGCUCGAGAACAUCUUCGGAAGCAGAGGAGGCAGGCUUCGGUGGCGCGAUAGCGCUAACGUCCUCAACCUCCAAUGCAUCCCACCACAUGAUGAUGACUGAAGUGCCUUGGUUUUUUG [U38A C73U C114A A121U],-1.65
8,GACCAAUCUGCCCUCAGAGCUCGAGAACAUCUUCGGAAGCAGAGGAGGCAGGCUUCGGUGGCGCGAUAGCGCCAACGUCCUCAACCUCCAAUGCAUCCCAACACAUGAUGAUGCCUGAUGUUCCUUGGUUUUUUG [U38A C101A A119U A121U G122U],-2.88
9,GACCAAUCUGCCCUCAGAGCUCGAGAACAUCUUCGGACGCAGAGGAGGCAGGUUUCGGUGGCGCGAUAGCGCCAACGUCCUCAACCUCCAAUGCAUCCCACCACAUGAUGAUGCCAGAAGGGCCUUGGUUUUUUG [U38C C53U U116A A121G],0.589
10,GACCAAUCUGCCCUCAGAGCUCGAGAACAUCUUCGGACGCAGGGGAGGCAGGCUUCGGUGGCGCGAUAGCGCUAACGUCCUCAACCUCCAAUACAUCCCACCACAUGAUGAUGCCUGAAGAGCCUUGGUUUUUUG [U38C A43G C73U G93A],-4.56
11,GACCAAUCUGCCCUCAGAGCUCGAGAACAUCUUCGGUUGCAGAGGAGGCAGGCUUCGGUGGCGCGAUAGCGCCAACGUCCUCAACCUCCAAUGCAUCCCACCACAUGAUGAUGCCUGAAGAGCCAUGGUUUUUUG [A37U U125A],-1.35
12,GACCAAUCUGCCCUCAGAGCUCGAGAACAUCUUCGGACGCAGAGGAGGCUGGCUUCGGUGGCGCGAUAGCGCCAACGUCCUCAACCUCCAAUGCAUCCCACCACAUGAUGAUGCCUGAAGAGCCUUGGUUUUUUG [U38C A50U],-0.941
13,GACCAAUCUGCCCUCAGAGCUCGAGAACAUCUUCGGAAUCAGAGGAGGCAGGCUUCGGUGUCGCGAUAGCGCCAACGUCCUCAACCUCUAAUGCAUCCCACCACAUGAUGCUGCCUGAAGAGCCUUGGUUUUUUG [U38A G39U G61U C89U A111C],-3.54
14,GACCAAUCUGCCCUCAGAGCUCGAGAACAUCUUCGGAAGCUGAUGAGGCAGGCUUCGGUGGCGCGAUAGCGCCAACGUCCUCAACCUCCAAUGCAUCCCACCACAUGAUGAUACCUGAAGAGCCUUGGUUUUUUG [U38A A41U G44U G113A],-5.6
15,GACCAAUCUGCCCUCAGAGCUCGAGAACAUCUUCGGUUGCAGAGGAGGCAGGCAUCGGUGGCGCGAUAGCGCCAACGUCCUCAACCUCCAAUGCAUCCCACCACAUGAUGAUGCCUGAAGAGUGUUGGUUUUUUG [A37U U54A C123U C124G],1.44
16,GACCAAUCUGCCCUCAGAGCUCGAGAACAUCUUCGGAAGCAUAGGAGGCAGGCUUCGGUGGCCCGAUAGCGCCAACGUUCUCAACCUCCAAUGCAUCCCACCACAUGAUGAUGCCUGAAGAGCCUUGGUUUUUUG [U38A G42U G63C C79U],-3.1
17,GACCAAUCUGCCCUCAGAGCUCGAGAACAUCUUCGGAAGCAGUGGAGGCAGGUUUCGGUGGCGCGAUAGCGCCAACGUCCUCAACCUCCAAUGCAUCCCACCACAUGAUGACGCCUGAAGAGCCUUGGUUUUUUC [U38A A43U C53U U112C G135C],-0.362
18,GACCAAUCUGCCCUCAGAGCUCGAGAACAUCUUCGGAAGCAGAGGAGGCAGGCUUCGGUGGCGCGAUAGCGCCAACGUCCUCAACCUCCAAUGCAUCCCACCACAUGAUGAUGCCUGAAGAGCCUUGGUUUCUUG [U38A U132C],-0.329
19,GACCAAUCUGCCCUCAGAGCUCGAGAACAUCUUCGGAAGCAGAGGAGGUAGGCUUCGGUGGCGCGAUAGCGCCAACGUCCUCAACCUUCAAUGCAUCCCACCACAUGAUGAUGCCUGAAGAGCCUUGGUUUUUUG [U38A C49U C88U],-1.59
20,GACCAAUCUGCCCUCAGAGCUCGAGAACAUCUUCGGAAGCAGAGGAGUCAGGCUUCGGUGGCGCGAUAGCGCCAACGUCCUCAACCUCCAAUGCAUCCCACCACAUGAUAAUGCCUGAAGAGCCUUGGUUUUUUG [U38A G48U G110A],-3.21
21,GACCAAUCUGCCCUCAGAGCUCGAGAACAUCUUCGGAGGCUGAGGAGGCAGGGUUCGGUGGAGCGAUAGCGCCAACGUCCUCAACCUCCAAUGCAUCCCACCACAUGAUGAUACCUGACGAGCCUUGGUUUUUUG [U38G A41U C53G C62A G113A A119C],-5.91
